{"source": "patent US20190330277A1", "key": {"[1]": {"biological_target": "391-2-DS-Cav1-sc9deleteFS 98C-362C", "test": "ELISA, variant from culture supernatant on Ni-NTA plate"}, "[2]": {"biological_target": "391-2-DS-Cav1-sc9 99C-361C", "test": "ELISA, variant from culture supernatant on Ni-NTA plate"}, "[3]": {"biological_target": "391-2 sc9 DS-Cav1 98C-362C", "test": "ELISA, variant from culture supernatant on Ni-NTA plate"}, "[4]": {"biological_target": "391-2-DS-Cav1-sc9 100C-362C", "test": "ELISA, variant from culture supernatant on Ni-NTA plate"}, "[5]": {"biological_target": "RB94 sc9 DS-CAV1 N183GC-N428C L373R Long", "test": "ELISA, variant from culture supernatant on Ni-NTA plate"}, "[6]": {"biological_target": "RB94 sc9 DS-CAV1 N183GC-N428C L373R Long K226L", "test": "ELISA, variant from culture supernatant on Ni-NTA plate"}, "[7]": {"biological_target": "391-2-DS-Cav1_ sc9_I28C-G464C", "test": "ELISA, variant from culture supernatant on Ni-NTA plate"}, "[8]": {"biological_target": "391-2-DS-Cav1-sc9 99C-362C", "test": "ELISA, variant from culture supernatant on Ni-NTA plate"}, "[9]": {"biological_target": "RB94 sc9 DS-CAV1 N183GC-N428C L373R", "test": "ELISA, variant from culture supernatant on Ni-NTA plate"}, "[10]": {"biological_target": "391-2-DS-Cav1-BZGJ9deleteFS", "test": "ELISA, variant from culture supernatant on Ni-NTA plate [continued]"}}, "data": [{"substance": "D25 antibody", "values": [{"measurement": "ELISA binding value", "setting": "[1]", "value": 0.362}, {"measurement": "ELISA binding value", "setting": "[2]", "value": 0.225}, {"measurement": "ELISA binding value", "setting": "[3]", "value": 0.433}, {"measurement": "ELISA binding value", "setting": "[4]", "value": 0.274}, {"measurement": "ELISA binding value", "setting": "[5]", "value": 0.26}, {"measurement": "ELISA binding value", "setting": "[6]", "value": 0.206}, {"measurement": "ELISA binding value", "setting": "[7]", "value": 0.202}, {"measurement": "ELISA binding value", "setting": "[8]", "value": 0.249}, {"measurement": "ELISA binding value", "setting": "[9]", "value": 0.187}, {"measurement": "ELISA binding value", "setting": "[10]", "value": 0.119}]}]}
